In the experiment the target is T1, murine HIP polypeptide (mouse hedgehog interacting protein) (mouse, UniProt Q7TN16 16-700).
T1 construct: In the expression cloning screen the protein was expressed in cells from a mouse limb bud cDNA library plasmid; also called Mouse HIP; mouse HIP clone
T1 sequence: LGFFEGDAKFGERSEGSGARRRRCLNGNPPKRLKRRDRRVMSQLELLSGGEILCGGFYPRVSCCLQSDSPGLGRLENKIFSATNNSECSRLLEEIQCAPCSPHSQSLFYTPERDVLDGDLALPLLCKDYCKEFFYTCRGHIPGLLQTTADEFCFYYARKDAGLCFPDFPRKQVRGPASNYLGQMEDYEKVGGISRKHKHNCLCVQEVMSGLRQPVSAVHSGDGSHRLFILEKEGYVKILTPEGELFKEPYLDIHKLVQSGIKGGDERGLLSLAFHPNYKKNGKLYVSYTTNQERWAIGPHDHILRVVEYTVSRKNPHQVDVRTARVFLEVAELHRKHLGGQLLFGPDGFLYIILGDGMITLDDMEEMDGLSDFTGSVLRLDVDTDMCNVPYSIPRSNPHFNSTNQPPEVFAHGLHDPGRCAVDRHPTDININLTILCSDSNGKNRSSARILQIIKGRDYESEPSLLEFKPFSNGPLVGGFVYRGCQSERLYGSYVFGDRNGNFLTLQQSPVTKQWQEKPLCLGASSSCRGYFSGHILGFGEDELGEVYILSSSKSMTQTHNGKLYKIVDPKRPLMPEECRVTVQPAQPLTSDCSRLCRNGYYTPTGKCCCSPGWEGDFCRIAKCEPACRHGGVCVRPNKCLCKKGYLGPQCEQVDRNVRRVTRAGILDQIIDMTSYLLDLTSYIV
Put plainly: ligand-receptor binding study.

The term Kd denotes the concentration at which binding is half-saturated.

B1: Desert hedgehog (Dhh) (ligand)
chain: not shown
As for B1, the Kd is about 1 nM.
